Source: patent US20250027068
Numbering of substitutions follows the chain as printed.

B1: PRT-510 (protein)
chain: MITSVWTKGVTPPTDFRKIVDGNIAYYHAPYKAGQGWYDITKAFDGGDDLLCGAATAGNMLHWWFDQNKEEIEAYLKKHPEKQKIMFGDQELLDVRKVINTKDSQTNSALFNYFKDKAFPNLSARRLGVMPDLVLDMFINGYYLNVYKTQTTDVNRTYQTKDRRGGIFDAVFTRGDQSKLLTERHDLKNKTLKEISDLIKQELTEGKALGLSHTYANVRINHVINLWGADFDSNGNLEAIYVTDSDSNASIGMKKYFVGVNSAGKVAISAKEIKEDNIGAQVLGLFTLSTGQDIWNQTNLEHHHHHH
B2: PRT-484 (protein)
chain: MVTSVWTKGVTPPTDFRKIVDGNIAYYHAPYKAGQGWYDITKAFDGGDNLLCGAATAGNMLHWWFDQNKDQIEAYLKEHPEKQKIIFNNQELFDLKAAIDTKDDQTNSELFNYFKEKAFPYLSTKHLGVFPDHVLDMFINGYRLSLTNHGPTPVKEGSKDKRGGIFDAVFTRGVQSKLLTSRHDLKNKTLKEISDLIKQELTEGKALALSHTYANVRINHVINLWGADFDSNGNLEAIYVTDSDTNASIGMKKYFVGVNSAGKVAISAKEIEDDNIGAQVLGLFTLSTGQDIWNQTNLEHHHHHH
B3: PRT-447 (protein)
chain: MVTSVWTKGVTPPTDFIKGEDVFHAPYKAGQGWYDITKAFDGGDDLLCGAATAGNMLHWWFDQNKDQIEAYLKEHPEKQKINFNGEQMFDVKEAIDTKDDQTNSELFNYFKEKAFPYLSTKHLGVFPDHVLDMFINGYRLSLTNHGPTPVKEGSKDPRGGIFDAVFTRGDQSKLLTSRHDFKEKTLKEISDLIKQELTEGKALALSHTYANVRINHVINLWGADFDSNGNLEAIYVTDSDSNASIGMKKYFVGVNSAGKVAISAKEIEDDNIGAQVLGLFTLSTGQDIWNQTNLEHHHHHH
B4: PRT-485 (protein)
chain: MVTSVWTKGVTPPANFTQGEDVFHAPYKANQGWYDITKTFNGKDNLLCGAATAGNMLHWWFDQNKDQIEAYLKEHPEKQKIIFNNQELFDLKAAIDTKDDQTNSKLFEYFKEKAFPYLSTKHLGVFPDHVLDMFINGYRLSLTNHGPTPVKEGSKDKRGGIFDAVFTRGVQSKLLTSRHDLKNKTLKEISDLIKQELTEGKALALSHTYANVRINHVINLWGADFDSNGNLEAIYVTDSDTNASIGMKKYFVGVNSAGKVAISAKEIEDDNIGAQVLGLFTLSTGQDIWNQTNLEHHHHHH
B5: PRT-489 (protein)
chain: B4 chain with K28V, A70R, D100S, N103D, A204G, N228E, E232K, E268K, D269E
B6: PRT-667 (protein)
chain: MQITSVWTKGVTPLTPEQFRYNNEDVFHAPYLAHQGWYDITKAFNGKDNLLCGAATAGNMLHWWFDQNKEEIEAYLKKHPEKQKIIFNNQELFDLRKAINTKDSQTNSQLFNYFRDKAFPNLSARQLGVMPDLVLDMFINGYYLNLNKTQSTDVNRPYQDKDKRGGIFDHVFTRGDQTTLLTARHDLKNKTLNDISQLIKQELQEGKALALSHTYANVSISHVINLWGADFNAEGNLEAIYVTDSDSDASIGMKKYFVGKNASGHVAISAKKIEGENIGAQVLGLFTLSSGKEIWQKLSLEHHHHHH
B7: PRT-515 (protein)
chain: MITSVWTKGVTPPTDFIKGEDVFHAPYKAGQGWYDITKAFDGGDDLLCGAATAGNMLHWWFDQNKEEIEAYLKKHPEKQKIMFGDQELLDVRKVINTKDSQTNSALFNYFKDKAFPNLSARRLGVMPDLVLDMFINGYYLNVYKTQTTDVNRQEQTKDRRGGIFDAVFGRGDQTKLLTERHDLKNKTLNEISQLIKQELTEGKALGLSHTYANVRINHVINLWGADFDAEGNLEAIYVTDSDSNASIGMKKYFVGVNSAGKVAISAKEIKEDNIGAQVLGLFTLSTGQKIWNKTNLEHHHHHH
B8: PRT-520 (protein)
chain: MVTSVWTKGVTPPTDFRKIVDGNIAYYHAPYKAGQGWYDITKAFDGGDNLLCGAATAGNMLHWWFDQNKEYIEAYLKKHPEKQKIIFNNQELFDLKAAINTKGSQKNSELFNYFRDKAFPNLSARRLGVFPDLVLDMFINGYYLNVTKTQTTDVNRTYQEKDKRGGIFDAVFTRGVQSKLLTSRHDLKNKGLKEISDLIKQELTEGKALGLSHTYANVRINHVINLWGADFDSDGNLKAIYVTDSDTNASIGMKKYFVGVNSAGKVAISAKEIKEDNIGAQVLGLFTLSTGQDIWNQTNLEHHHHHH
B9: PRT-492 (protein)
chain: MVTSVWTKGVTPPTDFRKIVDGNIAYYHAPYKAGQGWYDITKAFDGGDNLLCGAATAGNMLHWWFDQNKEQIENYLKKHPEKQKIIFNNQELFDLKAAIDTKDSQTNSELFNYFKEKAFPYLSTKHLGVFPDHVIDMFINGYRLSLTNHGPTPVKRGSKDKRGGIFDAVFTRGVQSKLLTNRHDLKNKTLKEISDLIKQELTEGKALGISHTYANVRINHVINLWGADFDAEGNLEAIYVTDSDTNASIGMKKYFVGVNSNGKVAISAKEIEEDNIGAQVLGLFTLSTGQDIWNQTNLEHHHHHH
B10: PRT-470 (protein)
chain: MVTSVWTKGVTPPTDFIYGEDVLHAPYKAGQGWYDITKTFNGKDDLLCGAATAGNMLHWWFDQNKEQIENYLKKHPEKQKINFNGEQMFDVKEAIDTKDSQLDSKLFEYFKEKAFPYLSTKHLGVFPDHVIDMFINGYRLSLTNHGPTPVKRGSKDPRGGIFDAVFTRGDQSKLLTNRHDFKEKTLKEISDLIKQELTEGKALGISHTYANVRINHVINLWGADFDAEGNLEAIYVTDSDSNASIGMKKYFVGVNSNGKVAISAKEIEEDNIGAQVLGLFTLSTGQDIWNQTNLEHHHHHH
B11: PRT-521 (protein)
chain: MVTSVWTKGVTPPADFTQGEDVFHAPYVANQGWYDITKTFNGKDNLLCGAATAGNMLHWWFDQNKEYIEAYLKKHPEKQKIIFNNQELFDLKAAINTKGSQKNSELFNYFRDKAFPNLSARRLGVFPDLVLDMFINGYYLNVTKTQTTDVNRTYQEKDKRGGIFDAVFTRGVQSKLLTSRHDLKNKGLKEISDLIKQELTEGKALGLSHTYANVRINHVINLWGADFDSDGNLKAIYVTDSDTNASIGMKKYFVGVNSAGKVAISAKEIKEDNIGAQVLGLFTLSTGQDIWNQTNLEHHHHHH
B12: PRT-636 (protein)
chain: MQITSVWTKGVTPLTMDQFRNYNYDVIHAPYKPGQGWYDITKAFDGKDNLLCGAATAGNMLHWWFDQNKTEIEAYLSKHPEKQKIIFNNQELFDLKAAIDTKDSQTNSQLFNYFRDKAFPNLSARQLGVMPDLVLDMFINGYYLNVFKTQSTDVNRPYQDKDKRGGIFDAVFTRGDQTTLLTARHDLKNKGLNDISTIIKQELTEGKALALSHTYANVSISHVINLWGADFNAEGNLEAIYVTDSDANASIGMKKYFVGINAHGHVAISAKKIEGENIGAQVLGLFTLSSGKDIWQKLSLEHHHHHH
B13: PRT-450 (protein)
chain: MVTSVWTKGVTPPTDFRKIVDGNIAYYHAPYKAGQGWYDITKAFDGGDDLLCGAATAGNMLHWWFDQNKDQIEAYLKEHPEKQKINFNGEQMFDVKEAIDTKDDQTNSELFNYFKEKAFPYLSTKHLGVFPDHVLDMFINGYRLSLTNHGPTPVKEGSKDPRGGIFDAVFTRGDQSKLLTSRHDLKNKTLKEISDLIKQELTEGKALALSHTYANVRINHVINLWGADFDSNGNLEAIYVTDSDSNASIGMKKYFVGVNSAGKVAISAKEIEDDNIGAQVLGLFTLSTGQDIWNQTNLEHHHHHH
B14: PRT-462 (protein)
chain: B13 chain with A74R, D104S, A208G, N232E, E236K, E272K, D273E

Molecular target: pooled human IgG (human IgG1,2,3 and 4)

Row | Protein | Enzyme Activity Endpoint Assay (purified): Fab′2 [ng/µL] | Enzyme Activity Endpoint Assay (purified): Fc [ng/µL] | Enzyme Activity Endpoint Assay (purified): IgG [ng/µL] | Enzyme Activity Endpoint Assay (purified): scIgG [ng/µL]
1 | B1 | 51 | 29 | 0 | 0
2 | B2 | 143 | 277 | 173 | 973
3 | B3 | 376 | 255 | 445 | 0
4 | B4 | 0 | 0 | 1400 | 0
5 | B5 | 0 | 0 | 0 | 0
6 | B6 | 61 | 197 | 279 | 896
7 | B7 | 0 | 0 | 0 | 0
8 | B8 | 271 | 265 | 470 | 475
9 | B9 | 54 | 207 | 362 | 1020
10 | B10 | 1080 | 363 | 0 | 0
11 | B11 | 0 | 13 | 0 | 0
12 | B12 | 12 | 17 | 0 | 0
13 | B13 | 300 | 282 | 227 | 481
14 | B14 | 0 | 0 | 0 | 0
